# Results published in the DeepSol protein solubility set.
# Assay: soluble on expression in E. coli; label from the status in PepcDB or PDB records
row,Sequence,soluble on expression in E. coli
1,MTAFIKFDGKKSSDFDLRIINDVEHDSSFYDVDQVKVPGRDGVVLKDNKRLEAIERSYPLRLYSKRRLTEVETDISNWLNVKGWKDLELSWEPDYIYKATHITPFSIKEVLRNFGRLKINFLIHPIKYLKTGKQEVPLVNGGTLQNPGNVQAKPILKIKGTGNGILTINDFETGLENVQSELVIDMERHLVYKDVLSAWDNIVRTERHRMPLFDVGQNKISWTGSFTITAVPNWGVKV,soluble
2,MDFPPTKLDYHVDMFNLQSHSRFLSLFKAQDGRIALILESTVFHPQGGGQPSDTGLIVFSGSDLKFSVQDVLHYGVFEGSNPESGIDSEKGKEVYLTVDESRRKLNSRQAVEDCSHCYAWHGWNKISDVWLHSAGHLLDMCMQKVGLGHLEPGKGYHFPDGPFVEYKGSVPQEEFQVKQKELEAEANELISKGGKVYAAILPYEEASVLCGGSLPDYISKGSTPRIIKLGDSPGCPCGGTHVSNLSDIISMKITQMRTKKGMTKVFYTIAS,soluble
3,MGSDKIHHHHHHMTPIAQRDGQAIQLVGFDGDDTLWKSEDYYRTAEADFEAILSGYLDLGDSRMQQHLLAVERRNLKIFGYGAKGMTLSMIETAIELTEARIEARDIQRIVEIGRATLQHPVEVIAGVREAVAAIAADYAVVLITKGDLFHQEQKIEQSGLSDLFPRIEVVSEKDPQTYARVLSEFDLPAERFVMIGNSLRSDVEPVLAIGGWGIYTPYAVTWAHEQDHGVAADEPRLREVPDPSGWPAAVRALDAQAGRQQ,not soluble
4,FSPLSSQSSACCFAYIARPLPRAHIKEYFYTSGKCSNPAVVFVTRKNRQVCANPEKKWVREYINSLEMS,soluble
5,MAFGVLALVHTACENAKYDVIDNLVYINEASTSKTKELTLTEGTTRTSLTVRLVNIINQTIKANLFIDESVLDAYNKKNETNYKMPPKEYISFPESVTIEAGSVSADPVNVDIKSFEAEGGAQYAIPISIKNVEGGIEKSESSSSFLLVLVKPLKQAVPKLTWYNGMHAAPEGAWGLALPNYTLEWWSKVTSKSGNGGYTKNNQAIINSGGLGTELYIRFGDLIYSENGSYKNNFLQVKTMGSQFDTGDPTKGKGLEAQKWYHFAVSYDAASGTTLLYQNGTVVASLSSSIGQPMNIDQFQMISSGEEYFPDFCEMCQVRFWKVTRTVNQIKKSMYTEVDYTDKNLLLYLPMNEGEGATILHDVTGNGHDVEIGNSNLGNENRQKVTWETYSFAQ,not soluble
6,MGSDKIHHHHHHMTITPHTLAVWADDQRAGLLDRSIDQHQYVFAYDPAAESPSAQVSLTMPVRLESWASRDLHPIFQMNLPEGALLEAIRRTVSKLIGEDDLTILRVTGGNQVGRNRFSLAADPAPGIVETKESLDELLSYPDTEELFNDLVAKYALRSGVSGVQPKVMLDATERGTAAVGGYIVKSWGSEYPQLAANEFFCMTAAKRAGLSVPEFHLSENGGLFVMKRFDLGERGEPLGFEDICSLQALATTRKYSSTYERVARTIKDFVSPAALLVAREQFFASLVLSCMVRNGDAHLKNFGVLYDRPGQLVQLAPVYDVVTTTAYIPKDVPALSLFGTKKWWSRRALERFAVSHLSLPVGRVGQILEKVAEAVTDTRGIVSAYMVEHPEYREVGNLQLASWEVGVANLVLI,not soluble
7,MAHHHHHHMLKACLPRHLRVTPLLRVWAAEEDDANAPPTTFKNVKPGRLLRLWRQIRQRAWVAFTWDEEWTSPGSEGYLHQQRLEQVCFAPLSAYGMVPGSYCDPLLYNTKNTSPFRWHVANTSSDIVGHWYMEADEIFRIKDWQPKNPDDPTEMFPRPPQQILKWDETVDEHGNRTFRYKYRYDFMGPTGMWEAYPRYPFSHLYLNGQDHHGRAEGYGFKQGHLLRCSEEEEEVLRRIMEEEDKEWEMVKRTEVVQEPWSYPGKIRPQDFNGAVERAKARFREQIKQGKETDPSEDPDYDLVQAGEYVEPRDGPRAEWRHLWTSNRAKGEPLPYQVTFNDGITFEDNEEKPPVHPASHYEVKPKEAPYKKYEEQDTKEADEKQKKLKEQWEKSFEESISRHEKTVGDGKTSGGNSDSRSSGSAADSGAKEPPK,not soluble
8,MAATSSTSSQSFDIELDIIGQQPPLLSIYTQISLVYPVSDPSQYPTIVSTLEEGLKRLSQTFPWVAGQVKTEGISEGNTGTSKIIPYEETPRLVVKDLRDDSSAPTIEGLRKAGFPLEMFDENVVAPRKTLAIGPGNGPNDPKPVLLLQLNFIKGGLILTVNGQHGAMDMTGQDAIIRLLSKACRNESFTEEEISAMNLDRKTVVPLLENYKVGPELDHQIAKPAPAGDAPPAPAKATWAFFSFTPKALSELKDAATKTLDASSKFVSTDDALSAFIWQSTSRVRLARLDASTPTEFCRAVDMRGPMGVSSTYPGLLQNMTYHDSTVAEIANEPLGATASRLRSELNSDRLRRRTQALATYMHGLPDKSSVSLTADANPSSSIMLSSWAKVGCWEYDFGFGLGKPESVRRPRFEPFESLMYFMPKKPDGEFTASISLRDEDMERLKADEEWTKYAKYIG,soluble
9,MNVLKLTNGREISYLNEVEIRMGIDELNGEERYKKELENMETSDITVHKYEGGFKIWECTVDLCDYIEENQTLFAGKSVLELGCGAALPSILTAVHGAKEVFAQDFNASVIEFFTLPNFEENPHSAVVQGEAMGWEEVPNRLSGRKFDFILSSETIYNEDDYQALHDAVAATIKDDGVAWFAAKFFYFGVGGSVPAFCEFINQRGILQASEAKVIAASVPRRIVEIRKK,not soluble
10,EDRPSKAPSFWYKIDPSHTQGYRTVQLVWKTLPPFEANGKILDYEVTLTRWKSHLQNYTVNATKLTVNLTNDRYLATLTVRNLVGKSDAAVLTIPACDFQATHPVMDLKAFPKDNMLWVEWTTPRESVKKYILEWCVLSDKAPCITDWQQEDGTVHRTYLRGNLAESKCYLITVTPVYADGPGSPESIKAYLKQAPPSKGPTVRTKKVGKNEAVLEWDQLPVDVQNGFIRNYTIFYRTIIGNETAVNVDSSHTEYTLSSLTSDTLYMVRMAAYTDEGGKDGPEFTFTTPK,soluble
11,MDIQIKRAYEPADPADGCRILVDRLWPRGLTKQQVACDLWLKEIAPTADLRKWFNHDPAKWAEFQRRYRDELSVNPCVKELLDRAAKGRLTLLYGARDAECNQAVVLRDYLLERN,not soluble
12,MSLIDKTKLLQNFQFHLPTGYHKESLARLNFMKGKPLRDAAVLIGFVDRPEGLQVILTKRAEHLRHHPGQISFPGGKFEPEDIHLVNTALRETNEEVGIEDKHIHVFGQLPKLPTISQFNVTPFLAFISPDYKTHIDPNEVESVFEVPANHILNPNKLYSSKFELKRSSHRVFAIPYRQHFIWGMTAQIIESMQKHIISGEGHHHHHH,soluble
13,SIIPSLEELDSLKYSDLQNLAKSLGLRANLRATKLLKALKGYIKHEARKGNENQDESQTSASSCDETEIQISNQEEAERQPLGHVTKTRRRCKTVRVDPDSQQNHSEIKISNPTEFQNHEKQESQDLRATAKVPSPPDEHQEAENAVSSGNRDSKVPSEGKKSLYTDESSKPGKNKRTAITTPNFKKLHEAHFKEMESIDQYIERKKKHFEEHNSMNELKQPINKGGVRTPVPPRGRLSVASTPISQRRSQGRSCGPASQSTLGLKGSLKRSAISAAKTGVRFSAATKDNEHKRSLTKTPARKSAHVTVSGGTPKGEAVLGTHKLKTITGNSAAVITPFKLTTEATQTPVSNKKPVFDLKASLSRPLNYEPHKGKLKPWGQSKENNYLNQHVNRINFYKKTYKQPHLQTKEEQRKKREQERKEKKAKVLGMRRGLILAED,not soluble
14,MRCMSDDHTHVQEFFEARAADWDSRFPDDGPAHAAAVAELGLREGDRVLDAGCGTGRALPSLRAAVGSSGVVVGVDLTPAMLAAAARAGRGRDGHLLLADVTRLPLGTESLDAVFAAGLIAHLPEPAENLRELARVVRAGGTLALFHPIGRAALAARQGRQITPDDLRAEANLGPLLAGSGWRMTSYVDEDARFLALAVRVKLEHHHHHH,not soluble
15,MSVSRYPVAIAGAGPAGSALALALQAQGVEALLLDRPLAQPFRIGESATPDVAGLLERLGAGHALDGQPGYHGNLSLWGSESPRLDHFLYRGRGHGWHLDRAGFDHALRQEAMARGVAVLGESGVDAIAPAAGGWRLRVRGLGEVEARVVVDAGGRRSPLAARLGISRCRLDRLQALACRVDGPGQLSGYSLVESAPYGWWYAAALPDGRALATLMTDQDLARELGLEHPANFLAAWRATRLLSERLPPPQRIDAAHAFAAHSGCVARAAGPGWICVGDALMGLDPLTSSGIACALGDALAAAPAIVAMLDGELAPARAYAKRADDCFRRYLAERRRHYRQENRWPEQPFWQRRAFSPAALAVPALEHHHHHH,not soluble
16,MDSAREVSDGRLTVEGFSVASRAFADKWKIHNQSFPPWSWVPLINRTLLVSKKEEGYLSLEKIIILSSLEEEIPEDESLNVATDCLEKEETVDHTILVPTMENEAHYYDFHIVYSASYKVPVLYFRGYCSGGEPLALDVIKKDVPSCSVSLLLESKWTFITQEEHPYLNRPWFKLHPCGTEDWIKLLSQSSSSSGCQMPIVLYLVSWFSVVGQVVGLRIPLEMLN,soluble
17,MGSDKIHHHHHHMQLLHTPAAISISFDDPNLISTAGLVPTMALAEDRLTVPTDKGANPGAKITTLIAGMVAGADSIDDIDALRHGGMHRLFDWIYAPSTLGSFLRAFTFGHVRQLDAVASRFLVGLATQAPALVPVDASTSDYVFIDVDDTIIKVHGHQKQGAGFGYSGIRGLNALLATVTTPESAPVVVAQRLRKGSCGSPRGAGRLIADAVATTRRLPGMEDEKILLRADSAFYGHPSISAAIKAGADVSVTVRMTPNVKKAIAQVPDDAWQTIKYTNAIFDEDTGRWISVAEVAEIPFTAFTSRKKTDHIPGLLVVRRIPELNNKDVDQPGLFDLHRFHAVFTTADPGILDTVAADKTHRQHAIIEQVNADVKASALAHMPSGVFTANSAWLVCAVMAFNLTRTAGVIAAGAMARATTATIRRKLVAVPARIARSARRLILHLPRNWRWETQWSRLCDHGRLPP,not soluble
18,MSLDVSYSFTPLTGYKDSLVNQHVKLPLNYPTIDNHNPKKSTTPNNEFHKKIATTGKIINLPKQSIVPAVSISVYNDMKTIVLTPMEFQLSSIGFQFQNLIIDLPHSTISTNCITFYYHQDHILIDLIDQNYLFITLKIAIDRFILGGQQLTLDNFEEWGYISVPYSFELRSSPFLLKCLDNLNLIVSLKDGGLLHFKRDEELGEINVFNFQEQGTLIPFLGFFGSGKQKDVVLDGVSSNSIVDALQIGGSGVVITLSVNKVLKLWNLDGHQNLSSLTIASDDNTWLPTIPSKYLKSYDQEDGKTIITLFINTKSGDSSKSMFVFKSFELESSNLHDLSDLSFQPELPNSLLFSSDVFYHESNFQNTIWFIQDYEVVGFGTSQLKYYILWKSNTSSILVEYTINPVNGAILSIEISHPNGFEIDENISAYHDAEYYMDRIFDSGNYDSLIVLTSIKILSQHWEIDNEGHHHHHH,soluble
19,MRNHYMSMYDMRQFFKTYFSSASEKSILVKLLDKRFHPPSHTANILDLGCHDGALMKNIVNAYAKRLPEKLVITGVDPSLQAIKEYAKADFPIPVQTNTFAGTAEDYFDVCTDHFDWIFASQCLYWSPDLPKIIKQIHETGDSALIVIRGCHGIYEIQSQFRHYIGNHLEKFYTDKEVEMALRTQKILFQKESLSTSIRLPDKDSIELKWLILFFLQMEEESLGDKIFCEVRDWITSRTSGSIHHEVHFFWLGNAILQGITI,not soluble
20,MGSDKIHHHHHHMNPELLQKYIAGNATEAEKQRVTEWIQENPENMREYMAQRKLHDMALWRTEPVAEENSRERKHFSLRGVCMEAAKIAAVLAIVLLGTHYWTGKHQVPEDKTWQSIYVPAGQRAELMLADGTKVWLNSRSTLTFPGSFKGNIRNVKLDGEGYFAVTKNVEQPFIVETNKCNVKVLGTEFNVMAYAADSVWETSLLEGAVEILVPGSNNSGMRLEPNMMASLKGNRLVKGRIKEVDYFLWREGLLCFNDISVRDMIEKLKLYYGVDIVVNNTRILKNRYTGKFRTKDGVEHVLKVLRLNNKFTYTKDDETNVITIN,not soluble
